Here are results for 41 sequences from the nanobody polyreactivity screen of Harvey et al. (2022).

The data set is described as follows: yeast display, Sf9 membrane polyspecificity reagent, FACS + sequencing; frameworks hold sequencing errors. Put shortly:
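Galactose induction of a Saccharomyces cerevisiae BJ5465 synthetic nanobody display library ran 36–48 hours. The cells were then stained for 1 hour at 4 °C with 10% biotinylated, detergent-solubilized Sf9 membrane reagent, pulled down on streptavidin microbeads and FACS-sorted into low and high (top ~1%) gates on expression and reagent-binding fluorescence. Labels for polyreactivity follow the gate of origin.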
As to “QVKLVESGGGLVQAGGSLRLSCAASGFTFTQYGLGWNRQAPGKEREFVATIRFSGDNTYYADSVKGRFTISRDNAKNTVYLQMNSLKPEDTAVYYCNADNRAFFVYPVSKRYDSWGQGTQVTVSS”, the “polyreactivity (PSR sort gate)” value is recorded as “low polyreactivity”.

Consider “QVKLVESGGGLVQAGGSLRLSCAASGLIFDTYAMGWYRQAHGKERELVADITLSGGSTYYADSLKGRFTISRDTAKNTVYLQMNSLKPVDTAVYYCAADSVSLFYWDQRYPDEYDYWGQGTQVTVSS”, for which the “polyreactivity (PSR sort gate)” value was “low polyreactivity”.

Consider “QVKLVESGGGLVQAGGSLRLSCAASGNTLYFNAMGWYRQAPGKERELVADISWGGGSTDYADSVKGRFTISRDNAKNTVYLQMNSLKPEDTAVYYCAADILSLPEYDYWGQGTQVTVSS”, for which the “polyreactivity (PSR sort gate)” value is “low polyreactivity”.

Take “QVKLVESGGGLVQAGGSLRLSCAASGRIFSYNAMGGYRPEPGKESEVVAAMSDGGGRTYYADSVKGRFTISRDNAKNTVYVQMNSLKPEDTAVYYCAARYSVYYFGQRNGRYGYWGQGTQVTVSS”: the “polyreactivity (PSR sort gate)” value was “high polyreactivity”.

“QVKLVESGGGLVQAGGSLRLSCAASGRNFYVYGMGWYRQAPGKERELVASITYRCGSTSYADSVKGRFTISRDNAKNTVYLQMNSLKPEDTAVYYCNADTYYRSDYWGQGTQVTVSS”: the “polyreactivity (PSR sort gate)” value is “high polyreactivity”.

Regarding “QVKLVESGGGLVQAGGSLRLSCAASGRTVTRNTMGWYRQAPGKERELVAAISRSGGGTYYADSVKGRFTISRDNAKNTVYLQMNSLKPEDTAVYYCAAVPQNYRNFDGYNYWGQGTQVTVSS”, the “polyreactivity (PSR sort gate)” value is on record as “high polyreactivity”.

As to “QVKLVESGGGLVQAGGSLRLSCAASGSIFSRNTMGWSRQEPGKERELVAGISSSGSRTYYADSVKGRFTISRDNAKNTVYLQMNSLKPEDTAVYYCAKAWPDHWYSRYDYWGQGTQLTVSS”, the “polyreactivity (PSR sort gate)” value is “low polyreactivity”.

As to “QVKLVESGGGLVQAGGSLRLSCAASGSIVVRYTMGWYRQAPGKERELVAAIYWGGGSTYYADSVKGRFTISRDNAKNTVYLQMNSLKAEDTAVYYCKKRYILLYDYWGQGTQVTVSS”, the “polyreactivity (PSR sort gate)” value is reported as “low polyreactivity”.

For the sequence “QVKLVESGGGLVQAGGSLRLSCAASGSTFHVYAMGWYRQEPGKESELVAGITSSGYSTYYADSVKGRFTISRDNAKNTVYLKMNSLKPEDTAFYYCNADIRGPYYYHRYDYWGQGTQVTVSS”, the “polyreactivity (PSR sort gate)” value is “low polyreactivity”.

For the sequence “QVKLVESGGGLVQAGGSLRLSCAASGSTYHSNAMGWYRRAHGKEMEFVASISIGGSTNYADSVKGRYTISRDNAKNTVYLQMNSLKAEDTAVYYSATEPNPRRPRVDYDYWGQGTQVTVSS”, the “polyreactivity (PSR sort gate)” value is “low polyreactivity”.

With “QVKLVESGGGLVQAGGSLRLSCCASGSTFSPNTMGRYRQAPGKDREVVAAITYRGANTYYADSVKGRFTISRDNAKLTVYLQMNSLKPEDTAVYYCSAVYAYHHVGFGYWGQGTQVTVSS”, the “polyreactivity (PSR sort gate)” value is given as “low polyreactivity”.

For “QVKLVESGGGLVQAGGSLRLSCDASGSTFIANTMGWYRQAPGKERELVAAITDSGGSTYYADSVKGRFTISRDNAKNTVYLQMNSLKPEDTAVYYCNADYVYVFIRAWSYDYWGQGTQVTVSS”, the “polyreactivity (PSR sort gate)” value is on record as “low polyreactivity”.

For the sequence “QVKLVESGGGLVQAGGSLRLSCPASGSTFYYNAMGWYRQAPGKERELVARISRSGGSTYADSVKGRFTISRDNAKNTVYLQMNSLKPEDTAVYYCNADAYGTPEFTSYAVRYDYWGQGTQVTVSS”, the “polyreactivity (PSR sort gate)” value is given as “low polyreactivity”.

Turning to “QVKLVESGGGLVQAGGSLRLSCSASGLTLSGNAMGWYRQAPGKERELVAAITGRGGSTTYADSVKGRFTISRDNAKNTVYLQMNSLKPEDTAVYYCPATRYSWHNRGSRRHRYDYWGQGTQVTVSS”, the “polyreactivity (PSR sort gate)” value is reported as “low polyreactivity”.

On to “QVKLVESGGGLVQAGGSLRLSFAASGFTCNANAMGWYRQAPGQERELVAAISLSGGRTYYADSVKGRFTISRDNAKNTVYLQMNSLKAEDTAVYYCAASPDGSFRRFSRVVSGDYWGQGTQVTVSS”, for which the “polyreactivity (PSR sort gate)” value is recorded as “high polyreactivity”.

Take “QVKLVESGGGLVQAGGSLRLSLQPPDSPSTTMLWDGIDRRLAKKGSWLPVFLPSGGTTYADSVKGRFTISRDNAKYTVYLQMNSLKPEDTAVYYCNADLSDVAVTDHDYWGQVTQVTVSS”: the “polyreactivity (PSR sort gate)” value is reported as “low polyreactivity”.

In the case of “QVKLVESGGGLVQAGGSLRLSWAASGSILNRYAMGWYRQAPGKERELVAAITGSSGSTYYADSVKGRFTISRDNAKNTVYLQMNSLKPEDTAVYYCATAFRNGRGSYYYWGQGTQVTVSS”, the “polyreactivity (PSR sort gate)” value is recorded as “high polyreactivity”.

On to “QVKLVESGGGLVQAGGSLRLTCAASGSTLYAYAMGRYRQAPGKERELVAAISSRAVRTYYADSVKGRFTISRDNAKNTVYLQINSLKPEDTAVYYCAARGQAYSGDRMYYWGQGTQVTVSS”, for which the “polyreactivity (PSR sort gate)” value is listed as “high polyreactivity”.

For the sequence “QVKLVESGGGLVQAGGTLPITCAASGRTFARYAMVWYRQAPGKERELVSAITGRSGTNTYYADSVKGRFTISRDNAKNTVYLQMNSLKPEDTAVYYCAADLQGYYFRGRWTSYDYWGQGTQVTVSS”, the “polyreactivity (PSR sort gate)” value is listed as “high polyreactivity”.

Regarding “QVKLVESGGRLVQAGGILRLSSPASGFIFRGYARGWYRQAPGKERELVAAINSGGSTNYADSVKGRFTISRDNAKNTVYLQMIRLKPEETAVYYCAARVKTSYRYLRTYNYWGLGTQVTVSS”, the “polyreactivity (PSR sort gate)” value is “high polyreactivity”.

For “QVKLVESVGALVQAGGSHRLSCAASGNTFPWYVLGWYRHATGKERELLAAITSSGSTTYYADSVKGRFTISRDNAKNTVYLQMNSLKPDDNAVYYCAARNYGPYDYWGPGTQVTVSS”, the “polyreactivity (PSR sort gate)” value is “low polyreactivity”.

For the sequence “QVKLVYSGGGLVQAGGSLRLSCAASVSIFYYYGMGWYRQAPVKERQLVAAITYRGTRTYYADSGKGRFTFSRDNAKTTVYLQMYSLKAEDTALYYCAAERRIYSSDSWGQGTQVTVSS”, the “polyreactivity (PSR sort gate)” value is recorded as “high polyreactivity”.

In the case of “QVKRVESGGGLVQAGGSLRLSCAASGSTFYRYAMGWYRQAPGKERELVAAINGRGGRTYYADSVKGRFTISRDNAKNTVYLQMNSLKPEDTAVYYCAARGYAPDTYGYWGQGTQVTVSS”, the “polyreactivity (PSR sort gate)” value is given as “high polyreactivity”.

As for “QVLLQESGAGLVQAGGSLRLSCAASGTISTDIRMGWYRLAPGKEREFVASIDGCSTTYYADSVKGRFTISRDNAKNSVYLQLNSLKPEDTAMYYCAAREDTEFYLYYWGQGNQVTVSS”, the “polyreactivity (PSR sort gate)” value was “low polyreactivity”.

Take “QVLLQESGGGLVQAGGSLRLSCAASGTISTDIRMGWYRLAPGKEPEFVASIDGCSTTYYADSVKVRFTISRDNAKNTVYLQMNSVIPEDSAMYYCAAREATEFYLYYWGQGTQVTVSS”: the “polyreactivity (PSR sort gate)” value is reported as “low polyreactivity”.

Consider “QVLLQESGGGLVQAGVSLRLCCAASGYISGDQFMGWYRQAPGKEREFVAGIGNGTNTNYADSVKGRFTTSRDNAKNTVYLQMNSLKQEDTAVYYCAADPSDGSTLAYWGHGTQVTVSS”, for which the “polyreactivity (PSR sort gate)” value was “high polyreactivity”.

“QVLLQESGGGLVQAGVSLRLSCAASGNIFSAGGMGWYRQAPVNERELVAGIGTGTSTNYADSVKGRFTISRDNAKNTVYLQMNSLKPEDTAVYYCAAAYYSGLSHWYWGQGTQVTVSS”: the “polyreactivity (PSR sort gate)” value was “low polyreactivity”.

In the case of “QVLLQESGGLVQAGCSLRMSCAESGSISTALSMGWYRQAPGKERELVATISDGASTNYADSVKGRFTISRVNAKNTLYLQMNSLKPEDTEVYYCAAQSQYRPDHRYWGQGTKVTVSS”, the “polyreactivity (PSR sort gate)” value was “high polyreactivity”.

In the case of “QVLLVESGGGLVHAGGSLRVSCASSGFTFKENAMGWYRQAPGKERELVAAISSTGGSTYYADSVKGRFTISRDNAKNTVFLLMNSLKPEDTAVYYCAASTYWYDGDYWGQGTQVTVSS”, the “polyreactivity (PSR sort gate)” value was “high polyreactivity”.

As to “QVLLVESGGGLVQAGGSLRLSCAASGIIFYRNAMGWYRQAPGKERELVAVITASGGHTYYADSVKGRFTISRDNAKNTVYLQMNSLKPEDTAVYYCNRELTSPRRWHVSRADDYWGQGTQVTVSS”, the “polyreactivity (PSR sort gate)” value is listed as “low polyreactivity”.

For “QVLLVESGGGLVQAGGSLRLSCAASGISIRAKAMGGYRQAPGKVRELVAAITWSGGDPYYADSVKGRFTISRDNAKNTVYLQMNSLKPEDTAVYYCNALQPGLGSPLGEYDYWGQGTQVTVSS”, the “polyreactivity (PSR sort gate)” value is listed as “low polyreactivity”.

For “QVLLVESGGGLVQAGGSLRLSCAASGITFGRNTMGWYRQAPGKDRELVAAIDSGGNTYADSVKGRFTISRDNAKNTVSLQMNSRKPEDTAVDYCAVDGGEFSSYGYWGQGTQVTVSS”, the “polyreactivity (PSR sort gate)” value is recorded as “low polyreactivity”.

For “QVLLVESGGGLVQAGGSLRLSCAASGLTFVYVMGWYRQAPGKERELVAGISYSAGRTYYADSVKGRFTISRDNAKNTVYLQMNSLKPEDTAVYYCAATKRGRPQRGYWGQGTQVTVSS”, the “polyreactivity (PSR sort gate)” value is on record as “high polyreactivity”.

Consider “QVLLVESGGGLVQAGGSLRLSCAASGYNFFTKAMGWYRQAQGKERELVAAISKSGGRTYYADSVKGRFTISRDNAKNTVYLQMNSLTPEDTAVYYCAARSETSYYPSRYDYWGQGTQVTVSS”, for which the “polyreactivity (PSR sort gate)” value is reported as “high polyreactivity”.

“QVLLVESGGGLVQAGGSLRLSCAAWSIFYLNAMGWYRQAPGKERELVAAISSAGSTYYADSVKVRFTISRDNAKNTVYLQMNSLKPEDTAVYYCAAYWYDSPGVTEIWYDYWGQGTQVTVSS”: the “polyreactivity (PSR sort gate)” value is given as “low polyreactivity”.

Turning to “QVLLVESGGGLVQAGGSLRLSCAAYGRTFYGYAMGWYRQAPGKERELVATISSGDSTNYADSVKGRFTISRDNAKNTVYLQMNSLKPEDTAVYYCAAQGGDGVLALYYYWGQGTQVTVSS”, the “polyreactivity (PSR sort gate)” value was “low polyreactivity”.

As for “QVLLVESGGGLVQAGGSLRLSSAASGSIFNRYAMGWYRQAPGKDSEFVAAITYSGGSTYYADSVKGRFTISRDNAKNNVYLQMIRVKPEDTAVYYCAKAYYPKGRYGFDYWGQGTQVTVSS”, the “polyreactivity (PSR sort gate)” value is given as “high polyreactivity”.

Turning to “QVLLVESGGGLVQAGGSVRLICAASGSIFKKYALGWYRPATGEERELVAAISWRGGRTYYADSVTGRFTISRDNAKNTVFLQMNSLKPEDTAVYYCAKERYVSYRGGPWVDYWGQGTQVTVSS”, the “polyreactivity (PSR sort gate)” value is on record as “high polyreactivity”.

Turning to “QVLLVESRGALVQAGGSLRLSCAASGSTFYWYAMGRYRQAPGKERELVASITRSGVRTYYADSVKGRFTISRDNGKNTVYLQMNSLKPEDTAVYYCAAERYYFPRSFRYGYWGQGTQVTVSS”, the “polyreactivity (PSR sort gate)” value is reported as “low polyreactivity”.

On to “QVLLVESRGGLVQAGGSLRLSCAASGSIFFYYAMGWYRQAPGKETELVASISWSGGSTYYADSVKGRFTISRDNAKNTVYLQMNSLKPEDTAVYFCAKVTITFSWETLYDYWGQGTQVTVSS”, for which the “polyreactivity (PSR sort gate)” value is “low polyreactivity”.

Consider “QVNLVESGGGLVQAGGSLRLSCAAYGRTFRTNAMRCNRQEPGKERELFAAITYSGDSTYYADSVKGRFTISRDNEKNTVYLQMNSLKPEDTAVYYCNARLLSGPGYDYWRQGTQVTVSS”, for which the “polyreactivity (PSR sort gate)” value is reported as “low polyreactivity”.
